T1: Tof1 (S. cerevisiae, UniProt P53840 1-1238, phosphorylated (sites not given))
T1 construct: Tof1, S. cerevisiae; residues 13-781 are resolved in the map; The Tof1 chain of m2; source: S. cerevisiae, overexpressed with Csm3, purified as Csm3/Tof1; in XL-MS part of the co-expressed, co-purified complex (yJY74)
T1 sequence: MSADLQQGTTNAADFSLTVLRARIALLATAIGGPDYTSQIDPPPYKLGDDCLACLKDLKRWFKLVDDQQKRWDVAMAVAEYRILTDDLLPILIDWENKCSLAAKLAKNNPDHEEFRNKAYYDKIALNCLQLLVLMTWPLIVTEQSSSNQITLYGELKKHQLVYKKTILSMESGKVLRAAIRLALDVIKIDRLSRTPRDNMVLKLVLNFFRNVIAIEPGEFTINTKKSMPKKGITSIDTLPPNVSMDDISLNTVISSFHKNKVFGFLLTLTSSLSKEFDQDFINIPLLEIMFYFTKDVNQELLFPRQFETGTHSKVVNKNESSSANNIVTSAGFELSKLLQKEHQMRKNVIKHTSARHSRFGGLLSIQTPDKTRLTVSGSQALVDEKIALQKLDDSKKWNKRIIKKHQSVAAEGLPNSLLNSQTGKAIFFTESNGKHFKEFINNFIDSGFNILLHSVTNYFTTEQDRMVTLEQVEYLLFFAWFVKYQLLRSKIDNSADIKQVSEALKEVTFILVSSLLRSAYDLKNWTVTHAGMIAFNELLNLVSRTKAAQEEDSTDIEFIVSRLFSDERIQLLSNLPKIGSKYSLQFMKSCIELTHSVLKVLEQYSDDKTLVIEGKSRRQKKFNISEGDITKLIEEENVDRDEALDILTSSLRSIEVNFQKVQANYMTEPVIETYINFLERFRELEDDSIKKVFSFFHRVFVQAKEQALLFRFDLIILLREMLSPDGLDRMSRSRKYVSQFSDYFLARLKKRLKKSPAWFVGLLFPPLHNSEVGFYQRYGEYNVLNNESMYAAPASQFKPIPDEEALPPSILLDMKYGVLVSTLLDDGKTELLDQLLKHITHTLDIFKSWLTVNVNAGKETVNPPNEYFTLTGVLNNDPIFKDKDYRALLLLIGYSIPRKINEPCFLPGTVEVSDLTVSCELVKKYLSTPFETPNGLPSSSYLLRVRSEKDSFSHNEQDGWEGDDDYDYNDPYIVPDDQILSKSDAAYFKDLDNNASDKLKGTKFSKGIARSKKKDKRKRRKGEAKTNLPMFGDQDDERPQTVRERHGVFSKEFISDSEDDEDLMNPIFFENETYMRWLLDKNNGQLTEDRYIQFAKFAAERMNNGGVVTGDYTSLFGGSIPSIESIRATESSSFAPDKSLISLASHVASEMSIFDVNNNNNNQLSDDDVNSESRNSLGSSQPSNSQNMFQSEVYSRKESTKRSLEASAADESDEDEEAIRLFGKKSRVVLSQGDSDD

B1: Mcm7 (natural protein, S. cerevisiae)
chain: MSAALPSIQLPVDYNNLFNEITDFLVTFKQDTLSSDATRNENEDENLDAENIEQHLLEKGPKYMAMLQKVANRELNSVIIDLDDILQYQNEKFLQGTQADDLVSAIQQNANHFTELFCRAIDNNMPLPTKEIDYKDDVLDVILNQRRLRNERMLSDRTNEIRSENLMDTTMDPPSSMNDALREVVEDETELFPPNLTRRYFLYFKPLSQNCARRYRKKAISSKPLSVRQIKGDFLGQLITVRGIITRVSDVKPAVEVIAYTCDQCGYEVFQEVNSRTFTPLSECTSEECSQNQTKGQLFMSTRASKFSAFQECKIQELSQQVPVGHIPRSLNIHVNGTLVRSLSPGDIVDVTGIFLPAPYTGFKALKAGLLTETYLEAQFVRQHKKKFASFSLTSDVEERVMELITSGDVYNRLAKSIAPEIYGNLDVKKALLLLLVGGVDKRVGDGMKIRGDINVCLMGDPGVAKSQLLKAICKISPRGVYTTGKGSSGVGLTAAVMKDPVTDEMILEGGALVLADNGICCIDEFDKMDESDRTAIHEVMEQQTISISKAGINTTLNARTSILAAANPLYGRYNPRLSPLDNINLPAALLSRFDILFLMLDIPSRDDDEKLAEHVTYVHMHNKQPDLDFTPVEPSKMREYIAYAKTKRPVMSEAVNDYVVQAYIRLRQDSKREMDSKFSFGQATPRTLLGIIRLSQALAKLRLADMVDIDDVEEALRLVRVSKESLYQETNKSKEDESPTTKIFTIIKKMLQETGKNTLSYENIVKTVRLRGFTMLQLSNCIQEYSYLNVWHLINEGNTLKFVDDGTMDTDQEDSLVSTPKLAPQTTASANVSAQDSDIDLQDA
notes: Mcm7, S. cerevisiae, subunit of CMG; source: S. cerevisiae, overexpressed, purified as part of CMG
B2: Ctf4 (natural protein, S. cerevisiae)
chain: MVSVIDKLVFDFGGKTLVSLAPDNNTLCVANKNGLTKILKTNNPEEEPETLDSSKLVSSIKCYSNSHFLMTTMQGDALRYNIDSSQEELLARFALPLRDCCVIHSGKMAVFGGDDLELILLELDDETHKKHAIKIDEQVSQISYNSQMNILAVSMINGKVQIFSLTSTIPNKVHELNDYIVANSYDDTHRDKILSNMMDDIDKDNDNDLSETADPDENNVADPEFCAANRICTRVAWHPKGLHFALPCADDTVKIFSIKGYSLQKTLSTNLSSTKAHFIDLQFDPLRGTYIAAVDLNNKLTVWNWETSEIHYTREFKRKITNIAWKIQADSKTLDLVLGTWSGSIAIVQNLAESVVSNIPDQSVAESSTKHGLFVDSESDLENLEGNDDINKSDKLFSDITQEANAEDVFTQTHDGPSGLSEKRKYNFEDEEDFIDDDDGAGYISGKKPHNEHSYSRVHKTHSFPISLANTGKFRYMPFSPAGTPFGFTDRRYLTMNEVGYVSTVKNSEQYSITVSFFDVGRFREYHFEDLFGYDLCFLNEKGTLFGQSKTGQIQYRPHDSIHSNWTKIIPLQAGERITSVAATPVRVIVGTSLGYFRSFNQFGVPFAVEKTSPIVALTAQNYRVFSVHYSQFHGLSYSLSELGTSSKRYYKRECPLPMSLPNINSDMKKDANLDYYNFNPMGIKSLFFSSYGDPCIFGSDNTLLLLSKWRSPEESKWLPILDSNMEIWKMSGGKETTDIHVWPLALAYDTLNCILVKGKHIWPEFPLPLPSEMEIRMPVFVKSKLLEENKAILNKKNEIGADTEAEEGEEDKEIQIPVSMAAEEEYLRSKVLSELLTDTLENDGEMYGNENEVLAALNGAYDKALLRLFASACSDQNVEKALSLAHELKQDRALTAAVKISERAELPSLVKKINNIREARYEQQLK
notes: Ctf4, S. cerevisiae; only the C-terminal part is resolved in the map; Homotrimer; also called Ctf4 trimer; Ctf4_(3); source: purified as previously described (Yeeles et al., 2015); also co-expressed with CMG, Csm3/Tof1 and Mrc1 in S. cerevisiae yJY74 and co-purified
B3: Csm3 (natural protein, S. cerevisiae)
chain: MDQDFDSLLLGFNDSDSVQKDPTVPNGLDGSVVDPTIADPTAITARKRRPQVKLTAEKLLSDKGLPYVLKNAHKRIRISSKKNSYDNLSNIIQFYQLWAHELFPKAKFKDFMKICQTVGKTDPVLREYRVSLFRDEMGMSFDVGTRETGQDLERQSPMVEEHVTSAEERPIVADSFAQDKRNVNNVDYDNDEDDDIYHLSYRNRRGRVLDERGNNETVLNNVVPPKEDLDALLKTFRVQGPVGLEENEKKLLLGWLDAHRKMEKGSMTEEDVQLIQSLEEWEMNDIEGQHTHYDLLPGGDEFGVDQDELDAMKEMGF
notes: Csm3, S. cerevisiae; residues 46-139 are resolved in the map; The Csm3 chain of m2; source: S. cerevisiae, overexpressed with Tof1, purified as Csm3/Tof1; in XL-MS part of the co-expressed, co-purified complex (yJY74)

What all share (test): cryo-EM structure; reconstituted from purified CMG, fork DNA, Csm3/Tof1, Ctf4, Mrc1 with AMP-PNP; glycerol gradient fixation (glutaraldehyde and BS3)
The target of one series is T1, Tof1. As to conditions: both partners purified.
Series [1] deals with the molecule itself.
The series “Mcm7” deals with B1. As to conditions: both partners purified.

Turning to B1, the binding result in the series with Tof1 is recorded as “binds”.
Consider B2, for which the stoichiometry N (commonly a count of units in the complex or per binding partner) in series [1] amounted to 3.
B3: the binding result in the series with Mcm7 is reported as “binds”.

The values above are taken from article PMC7276988, “Cryo-EM Structure of the Fork Protection Complex Bound to CMG at a Replication Fork” (Molecular Cell, 2020).
